In paper PMC11264237 (Archives of biochemistry and biophysics, 2024):

T1: GST fused to the ATP8A1 tail (amino acids 1049-1163) (human, UniProt Q9Y2Q0 1049-1163)
T1 sequence (looked up): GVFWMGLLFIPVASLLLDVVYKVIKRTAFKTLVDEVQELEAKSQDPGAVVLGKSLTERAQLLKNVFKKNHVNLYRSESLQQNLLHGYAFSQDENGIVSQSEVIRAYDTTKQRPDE


Biological target: T1, GST fused to the ATP8A1 tail (amino …)
Test: pull-down

% of total input bound to the beads	Binder
24 % of total input	BIG1 (natural protein, human (endogenous in HeLa), UniProt Q9Y6D6 1-1849, looked up) MYEGKKTKNMFLTRALEKILADKEVKKAHHSQLRKACEVALEEIKAETEKQSPPHGEAKAGSSTLPPVKSKTNFIEADKYFLPFELACQSKCPRIVSTSLDCLQKLIAYGHLTGNAPDSTTPGKKLIDRIIETICGCFQGPQTDEGVQLQIIKALLTAVTSQHIEIHEGTVLQAVRTCYNIYLASKNLINQTTAKATLTQMLNVIFARMENQALQEAKQMEKERHRQHHHLLQSPVSHHEPESPQLRYLPPQTVDHISQEHEGDLDLHTNDVDKSLQDDTEPENGSDISSAENEQTEADQATAAETLSKNEVLYDGENHDCEEKPQDIVQNIVEEMVNIVVGDMGEGTTINASADGNIGTIEDGSDSENIQANGIPGTPISVAYTPSLPDDRLSVSSNDTQESGNSSGPSPGAKFSHILQKDAFLVFRSLCKLSMKPLSDGPPDPKSHELRSKILSLQLLLSILQNAGPIFRTNEMFINAIKQYLCVALSKNGVSSVPEVFELSLSIFLTLLSNFKTHLKMQIEVFFKEIFLYILETSTSSFDHKWMVIQTLTRICADAQSVVDIYVNYDCDLNAANIFERLVNDLSKIAQGRGSQELGMSNVQELSLRKKGLECLVSILKCMVEWSKDQYVNPNSQTTLGQEKPSEQEMSEIKHPETINRYGSLNSLESTSSSGIGSYSTQMSGTDNPEQFEVLKQQKEIIEQGIDLFNKKPKRGIQYLQEQGMLGTTPEDIAQFLHQEERLDSTQVGEFLGDNDKFNKEVMYAYVDQHDFSGKDFVSALRMFLEGFRLPGEAQKIDRLMEKFAARYLECNQGQTLFASADTAYVLAYSIIMLTTDLHSPQVKNKMTKEQYIKMNRGINDSKDLPEEYLSAIYNEIAGKKISMKETKELTIPTKSSKQNVASEKQRRLLYNLEMEQMAKTAKALMEAVSHVQAPFTSATHLEHVRPMFKLAWTPFLAAFSVGLQDCDDTEVASLCLEGIRCAIRIACIFSIQLERDAYVQALARFTLLTVSSGITEMKQKNIDTIKTLITVAHTDGNYLGNSWHEILKCISQLELAQLIGTGVKPRYISGTVRGREGSLTGTKDQAPDEFVGLGLVGGNVDWKQIASIQESIGETSSQSVVVAVDRIFTGSTRLDGNAIVDFVRWLCAVSMDELLSTTHPRMFSLQKIVEISYYNMGRIRLQWSRIWEVIGDHFNKVGCNPNEDVAIFAVDSLRQLSMKFLEKGELANFRFQKDFLRPFEHIMKRNRSPTIRDMVVRCIAQMVNSQAANIRSGWKNIFSVFHLAASDQDESIVELAFQTTGHIVTLVFEKHFPATIDSFQDAVKCLSEFACNAAFPDTSMEAIRLIRHCAKYVSDRPQAFKEYTSDDMNVAPEDRVWVRGWFPILFELSCIINRCKLDVRTRGLTVMFEIMKTYGHTYEKHWWQDLFRIVFRIFDNMKLPEQQTEKAEWMTTTCNHALYAICDVFTQYLEVLSDVLLDDIFAQLYWCVQQDNEQLARSGTNCLENVVILNGEKFTLEIWDKTCNCTLDIFKTTIPHALLTWRPNSGETAPPPPSPVSEKPLDTISQKSVDIHDSIQPRSVDNRPQAPLVSASAVNEEVSKIKSTAKFPEQKLFAALLIKCVVQLELIQTIDNIVFFPATSKKEDAENLAAAQRDAVDFDVRVDTQDQGMYRFLTSQQLFKLLDCLLESHRFAKAFNSNNEQRTALWKAGFKGKSKPNLLKQETSSLACGLRILFRMYMDESRVSAWEEVQQRLLNVCSEALSYFLTLTSESHREAWTNLLLLFLTKVLKISDNRFKAHASFYYPLLCEIMQFDLIPELRAVLRRFFLRIGVVFQISQPPEQELGINKQ
18.5 % of total input	BIG2 (natural protein, human (endogenous in HeLa), UniProt Q9Y6D5 1-1785, looked up) MQESQTKSMFVSRALEKILADKEVKRPQHSQLRRACQVALDEIKAEIEKQRLGTAAPPKANFIEADKYFLPFELACQSKSPRVVSTSLDCLQKLIAYGHITGNAPDSGAPGKRLIDRIVETICSCFQGPQTDEGVQLQIIKALLTAVTSPHIEIHEGTILQTVRTCYNIYLASKNLINQTTAKATLTQMLNVIFTRMENQVLQEARELEKPIQSKPQSPVIQAAAVSPKFVRLKHSQAQSKPTTPEKTDLTNGEHARSDSGKVSTENGDAPRERGSSLSGTDDGAQEVVKDILEDVVTSAIKEAAEKHGLTEPERVLGELECQECAIPPGVDENSQTNGIADDRQSLSSADNLESDAQGHQVAARFSHVLQKDAFLVFRSLCKLSMKPLGEGPPDPKSHELRSKVVSLQLLLSVLQNAGPVFRTHEMFINAIKQYLCVALSKNGVSSVPDVFELSLAIFLTLLSNFKMHLKMQIEVFFKEIFLNILETSTSSFEHRWMVIQTLTRICADAQCVVDIYVNYDCDLNAANIFERLVNDLSKIAQGRSGHELGMTPLQELSLRKKGLECLVSILKCMVEWSKDLYVNPNHQTSLGQERLTDQEIGDGKGLDMARRCSVTSMESTVSSGTQTTVQDDPEQFEVIKQQKEIIEHGIELFNKKPKRGIQFLQEQGMLGTSVEDIAQFLHQEERLDSTQVGDFLGDSARFNKEVMYAYVDQLDFCEKEFVSALRTFLEGFRLPGEAQKIDRLMEKFAARYIECNQGQTLFASADTAYVLAYSIIMLTTDLHSPQVKNKMTKEQYIKMNRGINDSKDLPEEYLSSIYEEIEGKKIAMKETKELTIATKSTKQNVASEKQRRLLYNLEMEQMAKTAKALMEAVSHAKAPFTSATHLDHVRPMFKLVWTPLLAAYSIGLQNCDDTEVASLCLEGIRCAIRIACIFGMQLERDAYVQALARFSLLTASSSITEMKQKNIDTIKTLITVAHTDGNYLGNSWHEILKCISQLELAQLIGTGVKTRYLSGSGREREGSLKGHTLAGEEFMGLGLGNLVSGGVDKRQMASFQESVGETSSQSVVVAVDRIFTGSTRLDGNAIVDFVRWLCAVSMDELASPHHPRMFSLQKIVEISYYNMNRIRLQWSRIWHVIGDHFNKVGCNPNEDVAIFAVDSLRQLSMKFLEKGELANFRFQKDFLRPFEHIMKKNRSPTIRDMAIRCIAQMVNSQAANIRSGWKNIFAVFHQAASDHDGNIVELAFQTTCHIVTTIFQHHFPAAIDSFQDAVKCLSEFACNAAFPDTSMEAIRLIRFCGKYVSERPRVLQEYTSDDMNVAPGDRVWVRGWFPILFELSCIINRCKLDVRTRGLTVMFEIMKSYGHTFEKHWWQDLFRIVFRIFDNMKLPEQLSEKSEWMTTTCNHALYAICDVFTQFYEALNEVLLSDVFAQLQWCVKQDNEQLARSGTNCLENLVISNGEKFSPEVWDETCNCMLDIFKTTIPHVLLTWRPVGMEEDSSEKHLDVDLDRQSLSSIDKNPSERGQSQLSNPTDDSWKGRPYANQKLFASLLIKCVVQLELIQTIDNIVFYPATSKKEDAEHMVAAQQDTLDADIHIETEDQGMYKYMSSQHLFKLLDCLQESHSFSKAFNSNYEQRTVLWRAGFKGKSKPNLLKQETSSLACCLRILFRMYVDENRRDSWEEIQQRLLTVCSEALAYFITVNSESHREAWTSLLLLLLTKTLKINDEKFKAHASMYYPYLCEIMQFDLIPELRAVLRKFFLRIGVVYKIWIPEEPSQVPAALSPVW
